Assay results published in patent US7618621B2, “Mammalian multipotent neural stem cells and compositions, methods of preparation and methods of administration thereof” (The Board of Trustees of the University of Illinois, priority 2002, dated 2009).

Legend:
[1] = system: human NSCs; experiment: Retinal differentiation of human NSCs in vitro (opsin immunocytochemistry); format: cell-based; conditions: for differentiation of NSCs into opsin-positive cells: factor for 3 days before, or for 5 days during, spontaneous differentiation in serum-free condition, 50 ng/ml; for differentiation of NSCs into retinal cells (opsin staining): FIG. 7(II), serum-free differentiation, 20 ng/ml IGF-1, 100 ng/ml TGF-b3, 10 ng/ml CNTF
Experimental: Two kinds of differentiation studies were performed: treatment of human NSCs with factors (i) before and (ii) during spontaneous differentiation under a basal media condition. In the first example, NSCs were differentiated under a serum-free differentiation condition in the presence of TGF-b3 (R&D, 50 ng/ml (1 ng/ml to 1 ug/ml)) and VEGF (R&D, 50 ng/ml (1 ng/ml to 1 ug/ml)) for 5 days in Lab-Teck II chamber slides (Nalge Nunc). The second example elucidated whether pretreatment of NSCs is sufficient to produce retinal lineages in these cells. The NSCs were treated with these factors for 3 days, and then differentiated for 5 days under the serum-free differentiation condition in the absence of these factors in the Lab-Teck II chamber slides. As a control, human NSCs were differentiated for 5 days in a no-factor treatment under a serum-free differentiation condition. After differentiation, cells were examined by double-immunofluorescent-cytochemistry (Kim et al., 2002, Proc. Natl. Acad. Sci. U S A 99: 4020-5) with antibodies in a combination of goat anti-GFAP (1:100, Research Diagnostics) and mouse anti-B-tubulin (1:700, Sigma) or mouse anti-opsin (1:200, Chemicon). […] No opsin-positive cells were detected in the spontaneous differentiation without TGF-b3 (FIG. 7b), the treated cells were positive for bIII-tubulin and GFAP (FIG. 7a).

[2] = system: MeSCs; experiment: Retinal cell differentiation of MeSCs with growth factor treatment; format: cell-based; conditions: without BrdU pre-treatment
[3] = system: rat retina; experiment: Transplantation of pretreated NSCs into the rat vitreous cavity (opsin immunocytochemistry, human opsin ISHH); format: in vivo; conditions: FIG. 8(II); 8 days after transplantation to rat eye; NSCs exposed for four days to 20 ng/ml IGF-1, 100 ng/ml TGF-b3 or 10 ng/ml CNTF

Molecule: VEGF
- differentiation of NSCs into opsin-positive cells [1]: no opsin-positive cells were detectable
- retinal cell-differentiation of MeSCs [2]: not sufficient to confer retinal cell-differentiation

Molecule: IGF-1: insulin-like growth factor-1
- differentiation of NSCs into retinal cells (opsin staining) [1]: can differentiate into retinal cells
- differentiation of transplanted NSCs to opsin-expressing cells in vivo [3]: differentiated to opsin-expressing cells in vivo

B1: TGF-b3: human recombinant transforming growth factor beta 3 (R&D) (protein, UniProt P10600 301-412, looked up)
Transforming growth factor …: ALDTNYCFRNLEENCCVRPLYIDFRQDLGWKWVHEPKGYYANFCSGPCPYLRSADTTHSTVLGLYNTLNPEASASPCCVPQDLEPLTILYYVGRTPKVEQLSNMVVKSCKCS
- differentiation of NSCs into retinal cells (opsin staining) [1]: can differentiate into retinal cells
- differentiation of NSCs into opsin-positive cells [1]: differentiated into opsin-positive cells
- retinal cell-differentiation of MeSCs [2]: not sufficient to confer retinal cell-differentiation
- differentiation of transplanted NSCs to opsin-expressing cells in vivo [3]: differentiated to opsin-expressing cells in vivo

B2: CNTF: ciliary neurotrophic factor (protein, UniProt P26441 1-200, looked up)
Ciliary neurotrophic factor: MAFTEHSPLTPHRRDLCSRSIWLARKIRSDLTALTESYVKHQGLNKNINLDSADGMPVASTDQWSELTEAERLQENLQAYRTFHVLLARLLEDQQVHFTPTEGDFHQAIHTLLLQVAAFAYQIEELMILLEYKIPRNEADGMPINVGDGGLFEKKLWGLKVLQELSQWTVRSIHDLRFISSHQTGIPARGSHYIANNKKM
- differentiation of NSCs into retinal cells (opsin staining) [1]: can differentiate into retinal cells
- differentiation of transplanted NSCs to opsin-expressing cells in vivo [3]: differentiated to opsin-expressing cells in vivo
